Measurements: patent publication US20240067696A1 (ZEALAND PHARMA A S, published 2024)
Values belong to the binder of their own block, whether it stands above or below them. Non-standard residues stand in square brackets, D forms with d. Dab = NCC[C@H](N)C(=O)O; Aib = CC(C)(N)C(=O)O

Target: human glucagon receptor (human, UniProt P47871 26-477)
Assay: cell-based or functional assay

Chain of human glucagon receptor (P47871 26-477): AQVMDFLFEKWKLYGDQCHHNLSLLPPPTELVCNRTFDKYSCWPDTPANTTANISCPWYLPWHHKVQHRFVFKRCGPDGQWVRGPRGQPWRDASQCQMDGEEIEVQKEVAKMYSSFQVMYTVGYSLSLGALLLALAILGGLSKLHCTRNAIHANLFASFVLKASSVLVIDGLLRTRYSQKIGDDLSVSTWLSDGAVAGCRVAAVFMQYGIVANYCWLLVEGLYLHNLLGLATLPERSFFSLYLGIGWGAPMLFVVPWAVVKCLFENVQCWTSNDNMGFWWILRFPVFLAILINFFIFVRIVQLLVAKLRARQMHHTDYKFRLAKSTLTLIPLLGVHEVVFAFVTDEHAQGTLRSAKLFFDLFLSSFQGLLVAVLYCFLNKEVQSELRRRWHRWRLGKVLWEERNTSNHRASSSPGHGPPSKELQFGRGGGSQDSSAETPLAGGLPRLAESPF

B2: Compound 30 (peptide)
peptide: H-HSQGTFTSDYSKYLD[Aib]ARAESFVKWLESA-OH
SMILES: CC(C)C[C@H](NC(=O)[C@H](Cc1c[nH]c2ccccc12)NC(=O)[C@H](CCCCN)NC(=O)[C@@H](NC(=O)[C@H](Cc1ccccc1)NC(=O)[C@H](CO)NC(=O)[C@H](CCC(=O)O)NC(=O)[C@H](C)NC(=O)[C@H](CCCNC(=N)N)NC(=O)[C@H](C)NC(=O)C(C)(C)NC(=O)[C@H](CC(=O)O)NC(=O)[C@H](CC(C)C)NC(=O)[C@H](Cc1ccc(O)cc1)NC(=O)[C@H](CCCCN)NC(=O)[C@H](CO)NC(=O)[C@H](Cc1ccc(O)cc1)NC(=O)[C@H](CC(=O)O)NC(=O)[C@H](CO)NC(=O)[C@@H](NC(=O)[C@H](Cc1ccccc1)NC(=O)[C@@H](NC(=O)CNC(=O)[C@H](CCC(N)=O)NC(=O)[C@H](CO)NC(=O)[C@@H](N)Cc1c[nH]cn1)[C@@H](C)O)[C@@H](C)O)C(C)C)C(=O)N[C@@H](CCC(=O)O)C(=O)N[C@@H](CO)C(=O)N[C@@H](C)C(=O)O
GCG-R EC50 in vitro [nM] (cAMP, AlphaScreen, HEK293 cells expressing human Glucagon-R): 0.016 nM

Binder: H-HSQGTFTSDYSKYLDEARAKSFVEWLEST-OH [Compound 28]
GCG-R EC50 in vitro [nM] (cAMP, AlphaScreen, HEK293 cells expressing human Glucagon-R): 0.035 nM

B3: Compound 24 (peptide)
peptide: H-HS[Dab](Ac)GTFTSDYSKYLD[Aib]ARAESFVKWLEST-NH2
SMILES: CC(=O)NCC[C@H](NC(=O)[C@H](CO)NC(=O)[C@@H](N)Cc1c[nH]cn1)C(=O)NCC(=O)N[C@H](C(=O)N[C@@H](Cc1ccccc1)C(=O)N[C@H](C(=O)N[C@@H](CO)C(=O)N[C@@H](CC(=O)O)C(=O)N[C@@H](Cc1ccc(O)cc1)C(=O)N[C@@H](CO)C(=O)N[C@@H](CCCCN)C(=O)N[C@@H](Cc1ccc(O)cc1)C(=O)N[C@@H](CC(C)C)C(=O)N[C@@H](CC(=O)O)C(=O)NC(C)(C)C(=O)N[C@@H](C)C(=O)N[C@@H](CCCNC(=N)N)C(=O)N[C@@H](C)C(=O)N[C@@H](CCC(=O)O)C(=O)N[C@@H](CO)C(=O)N[C@@H](Cc1ccccc1)C(=O)N[C@H](C(=O)N[C@@H](CCCCN)C(=O)N[C@@H](Cc1c[nH]c2ccccc12)C(=O)N[C@@H](CC(C)C)C(=O)N[C@@H](CCC(=O)O)C(=O)N[C@@H](CO)C(=O)N[C@H](C(N)=O)[C@@H](C)O)C(C)C)[C@@H](C)O)[C@@H](C)O
GCG-R EC50 in vitro [nM] (cAMP, AlphaScreen, HEK293 cells expressing human Glucagon-R): 0.0078 nM

B6: Compound 35 (peptide)
peptide: H-HSQGTFTSDYSKYLD[Aib]ARAEEFVAWLEST-OH
SMILES: CC(C)C[C@H](NC(=O)[C@H](Cc1c[nH]c2ccccc12)NC(=O)[C@H](C)NC(=O)[C@@H](NC(=O)[C@H](Cc1ccccc1)NC(=O)[C@H](CCC(=O)O)NC(=O)[C@H](CCC(=O)O)NC(=O)[C@H](C)NC(=O)[C@H](CCCNC(=N)N)NC(=O)[C@H](C)NC(=O)C(C)(C)NC(=O)[C@H](CC(=O)O)NC(=O)[C@H](CC(C)C)NC(=O)[C@H](Cc1ccc(O)cc1)NC(=O)[C@H](CCCCN)NC(=O)[C@H](CO)NC(=O)[C@H](Cc1ccc(O)cc1)NC(=O)[C@H](CC(=O)O)NC(=O)[C@H](CO)NC(=O)[C@@H](NC(=O)[C@H](Cc1ccccc1)NC(=O)[C@@H](NC(=O)CNC(=O)[C@H](CCC(N)=O)NC(=O)[C@H](CO)NC(=O)[C@@H](N)Cc1c[nH]cn1)[C@@H](C)O)[C@@H](C)O)C(C)C)C(=O)N[C@@H](CCC(=O)O)C(=O)N[C@@H](CO)C(=O)N[C@H](C(=O)O)[C@@H](C)O
GCG-R EC50 in vitro [nM] (cAMP, AlphaScreen, HEK293 cells expressing human Glucagon-R): 0.014 nM

B7: Compound 33 (peptide)
peptide: H-HSQGTFTSDYSKYLD[Aib]ARAEEFVSWLEKT-OH
SMILES: CC(C)C[C@H](NC(=O)[C@H](Cc1c[nH]c2ccccc12)NC(=O)[C@H](CO)NC(=O)[C@@H](NC(=O)[C@H](Cc1ccccc1)NC(=O)[C@H](CCC(=O)O)NC(=O)[C@H](CCC(=O)O)NC(=O)[C@H](C)NC(=O)[C@H](CCCNC(=N)N)NC(=O)[C@H](C)NC(=O)C(C)(C)NC(=O)[C@H](CC(=O)O)NC(=O)[C@H](CC(C)C)NC(=O)[C@H](Cc1ccc(O)cc1)NC(=O)[C@H](CCCCN)NC(=O)[C@H](CO)NC(=O)[C@H](Cc1ccc(O)cc1)NC(=O)[C@H](CC(=O)O)NC(=O)[C@H](CO)NC(=O)[C@@H](NC(=O)[C@H](Cc1ccccc1)NC(=O)[C@@H](NC(=O)CNC(=O)[C@H](CCC(N)=O)NC(=O)[C@H](CO)NC(=O)[C@@H](N)Cc1c[nH]cn1)[C@@H](C)O)[C@@H](C)O)C(C)C)C(=O)N[C@@H](CCC(=O)O)C(=O)N[C@@H](CCCCN)C(=O)N[C@H](C(=O)O)[C@@H](C)O
GCG-R EC50 in vitro [nM] (cAMP, AlphaScreen, HEK293 cells expressing human Glucagon-R): 0.044 nM

B8: Compound 29 (peptide)
peptide: H-HSQGTFTSDYSKYLD[Aib]ARAKSFVEWLEKT-OH
SMILES: CC(C)C[C@H](NC(=O)[C@H](Cc1c[nH]c2ccccc12)NC(=O)[C@H](CCC(=O)O)NC(=O)[C@@H](NC(=O)[C@H](Cc1ccccc1)NC(=O)[C@H](CO)NC(=O)[C@H](CCCCN)NC(=O)[C@H](C)NC(=O)[C@H](CCCNC(=N)N)NC(=O)[C@H](C)NC(=O)C(C)(C)NC(=O)[C@H](CC(=O)O)NC(=O)[C@H](CC(C)C)NC(=O)[C@H](Cc1ccc(O)cc1)NC(=O)[C@H](CCCCN)NC(=O)[C@H](CO)NC(=O)[C@H](Cc1ccc(O)cc1)NC(=O)[C@H](CC(=O)O)NC(=O)[C@H](CO)NC(=O)[C@@H](NC(=O)[C@H](Cc1ccccc1)NC(=O)[C@@H](NC(=O)CNC(=O)[C@H](CCC(N)=O)NC(=O)[C@H](CO)NC(=O)[C@@H](N)Cc1c[nH]cn1)[C@@H](C)O)[C@@H](C)O)C(C)C)C(=O)N[C@@H](CCC(=O)O)C(=O)N[C@@H](CCCCN)C(=O)N[C@H](C(=O)O)[C@@H](C)O
GCG-R EC50 in vitro [nM] (cAMP, AlphaScreen, HEK293 cells expressing human Glucagon-R): 0.023 nM

Binder: H-HSQGTFTSDYSKYLDEARAKSFVEWLEKT-OH [Compound 27]
GCG-R EC50 in vitro [nM] (cAMP, AlphaScreen, HEK293 cells expressing human Glucagon-R): 0.063 nM

Now from value to binder:

GCG-R EC50 in vitro [nM] (cAMP, AlphaScreen, HEK293 cells expressing human Glucagon-R): 0.0093 nM
B1: Compound 32 (peptide)
peptide: H-HS[Dab](Ac)GTFTSDYSKYLD[Aib]ARAESFVKWLEST-OH
SMILES: CC(=O)NCC[C@H](NC(=O)[C@H](CO)NC(=O)[C@@H](N)Cc1c[nH]cn1)C(=O)NCC(=O)N[C@H](C(=O)N[C@@H](Cc1ccccc1)C(=O)N[C@H](C(=O)N[C@@H](CO)C(=O)N[C@@H](CC(=O)O)C(=O)N[C@@H](Cc1ccc(O)cc1)C(=O)N[C@@H](CO)C(=O)N[C@@H](CCCCN)C(=O)N[C@@H](Cc1ccc(O)cc1)C(=O)N[C@@H](CC(C)C)C(=O)N[C@@H](CC(=O)O)C(=O)NC(C)(C)C(=O)N[C@@H](C)C(=O)N[C@@H](CCCNC(=N)N)C(=O)N[C@@H](C)C(=O)N[C@@H](CCC(=O)O)C(=O)N[C@@H](CO)C(=O)N[C@@H](Cc1ccccc1)C(=O)N[C@H](C(=O)N[C@@H](CCCCN)C(=O)N[C@@H](Cc1c[nH]c2ccccc12)C(=O)N[C@@H](CC(C)C)C(=O)N[C@@H](CCC(=O)O)C(=O)N[C@@H](CO)C(=O)N[C@H](C(=O)O)[C@@H](C)O)C(C)C)[C@@H](C)O)[C@@H](C)O

GCG-R EC50 in vitro [nM] (cAMP, AlphaScreen, HEK293 cells expressing human Glucagon-R): 0.0072 nM
B4: Compound 31 (peptide)
peptide: H-HSQGTFTSDYSKYLD[Aib]ARAESFVKWLEST-NH2
SMILES: CC(C)C[C@H](NC(=O)[C@H](Cc1c[nH]c2ccccc12)NC(=O)[C@H](CCCCN)NC(=O)[C@@H](NC(=O)[C@H](Cc1ccccc1)NC(=O)[C@H](CO)NC(=O)[C@H](CCC(=O)O)NC(=O)[C@H](C)NC(=O)[C@H](CCCNC(=N)N)NC(=O)[C@H](C)NC(=O)C(C)(C)NC(=O)[C@H](CC(=O)O)NC(=O)[C@H](CC(C)C)NC(=O)[C@H](Cc1ccc(O)cc1)NC(=O)[C@H](CCCCN)NC(=O)[C@H](CO)NC(=O)[C@H](Cc1ccc(O)cc1)NC(=O)[C@H](CC(=O)O)NC(=O)[C@H](CO)NC(=O)[C@@H](NC(=O)[C@H](Cc1ccccc1)NC(=O)[C@@H](NC(=O)CNC(=O)[C@H](CCC(N)=O)NC(=O)[C@H](CO)NC(=O)[C@@H](N)Cc1c[nH]cn1)[C@@H](C)O)[C@@H](C)O)C(C)C)C(=O)N[C@@H](CCC(=O)O)C(=O)N[C@@H](CO)C(=O)N[C@H](C(N)=O)[C@@H](C)O

GCG-R EC50 in vitro [nM] (cAMP, AlphaScreen, HEK293 cells expressing human Glucagon-R): 0.18 nM
Binder: H-HSQGTFTSDYSKYLDSARAEDFVKWLEET-OH [Compound 2]

GCG-R EC50 in vitro [nM] (cAMP, AlphaScreen, HEK293 cells expressing human Glucagon-R): 0.028 nM
B5: Compound 34 (peptide)
peptide: H-HSQGTFTSDYSKYLD[Aib]ARAEKFVEWLEST-OH
SMILES: CC(C)C[C@H](NC(=O)[C@H](Cc1c[nH]c2ccccc12)NC(=O)[C@H](CCC(=O)O)NC(=O)[C@@H](NC(=O)[C@H](Cc1ccccc1)NC(=O)[C@H](CCCCN)NC(=O)[C@H](CCC(=O)O)NC(=O)[C@H](C)NC(=O)[C@H](CCCNC(=N)N)NC(=O)[C@H](C)NC(=O)C(C)(C)NC(=O)[C@H](CC(=O)O)NC(=O)[C@H](CC(C)C)NC(=O)[C@H](Cc1ccc(O)cc1)NC(=O)[C@H](CCCCN)NC(=O)[C@H](CO)NC(=O)[C@H](Cc1ccc(O)cc1)NC(=O)[C@H](CC(=O)O)NC(=O)[C@H](CO)NC(=O)[C@@H](NC(=O)[C@H](Cc1ccccc1)NC(=O)[C@@H](NC(=O)CNC(=O)[C@H](CCC(N)=O)NC(=O)[C@H](CO)NC(=O)[C@@H](N)Cc1c[nH]cn1)[C@@H](C)O)[C@@H](C)O)C(C)C)C(=O)N[C@@H](CCC(=O)O)C(=O)N[C@@H](CO)C(=O)N[C@H](C(=O)O)[C@@H](C)O

GCG-R EC50 in vitro [nM] (cAMP, AlphaScreen, HEK293 cells expressing human Glucagon-R): 0.0066 nM
B9: Compound 25 (peptide)
peptide: H-HSQGTFTSDYSKYLD[Aib]RRAESFVKWLEST-OH
SMILES: CC(C)C[C@H](NC(=O)[C@H](Cc1c[nH]c2ccccc12)NC(=O)[C@H](CCCCN)NC(=O)[C@@H](NC(=O)[C@H](Cc1ccccc1)NC(=O)[C@H](CO)NC(=O)[C@H](CCC(=O)O)NC(=O)[C@H](C)NC(=O)[C@H](CCCNC(=N)N)NC(=O)[C@H](CCCNC(=N)N)NC(=O)C(C)(C)NC(=O)[C@H](CC(=O)O)NC(=O)[C@H](CC(C)C)NC(=O)[C@H](Cc1ccc(O)cc1)NC(=O)[C@H](CCCCN)NC(=O)[C@H](CO)NC(=O)[C@H](Cc1ccc(O)cc1)NC(=O)[C@H](CC(=O)O)NC(=O)[C@H](CO)NC(=O)[C@@H](NC(=O)[C@H](Cc1ccccc1)NC(=O)[C@@H](NC(=O)CNC(=O)[C@H](CCC(N)=O)NC(=O)[C@H](CO)NC(=O)[C@@H](N)Cc1c[nH]cn1)[C@@H](C)O)[C@@H](C)O)C(C)C)C(=O)N[C@@H](CCC(=O)O)C(=O)N[C@@H](CO)C(=O)N[C@H](C(=O)O)[C@@H](C)O
